Measurements taken from doi:10.1101/2021.10.29.466387 (bioRxiv, 2021).
Several values for one entry are separate records, joined by “and”; a condition that tells them apart may be missing. Identical values can stand only once.

Assays:
[1] = target: the molecule itself; assay: native gel or EMSA
[2] = target: the molecule itself; assay: SDS-PAGE of samples folded in detergent micelles

B1: OmpF (natural protein)
chain: AEIYNKDGNKVDLYGKAVGLHYFSKGNGENSYGGNGDMTYARLGFKGETQINSDLTGYGQWEYNFQGNNSEGADAQTGNKTRLAFAGLKYADVGSFDYGRNYGVVYDALGYTDMLPEFGGDTAYSDDFFVGRVGGVATYRNSNFFGLVDGLNFAVQYLGKNERDTARRSNGDGVGGSISYEYEGFGIVGAYGAADRTNLQEAQPLGNGKKAEQWATGLKYDANNIYLAANYGETRNATPITNKFTNTSGFANKTQDVLLVAQYQFDFGLRPSIAYTKSKAKDVEGIGDVDLVNYFEVGATYYFNKNMSTYVDYIINQIDSDNKLGVGSDDTVAVGIVYQF
stoichiometry N [1]: 3 and 2

B2: FLAG-OmpC (natural protein)
chain: AEVYNKDGNKLDLYGKVDGLHYFSDNKDVDGDQTYMRLGFKGETQVTDQLTGYGQWEYQIQGNSAENENNSWTRVAFAGLKFQDVGSFDYGRNYGVVYDVTSWTDVLPEFGGDTYGSDNFMQQRGNGFATYRNTDFFGLVDGLNFAVQYQGKNGNPSGEGFTSGVTNNGRDALRQNGDGVGGSITYDYEGFGIGGAISSSKRTDAQNTAAYIGNGDRAETYTGGLKYDANNIYLAAQYTQTYNATRVGSLGWANKAQNFEAVAQYQFDFGLRPSLAYLQSKGKNLGRGYDDEDILKYVDVGATYYFNKNMSTYVDYKINLLDDNQFTRDAGINTDNIVALGLVYQF
stoichiometry N [1]: 2 and 3

B3: OmpC-His6 (natural protein)
chain: AEVYNKDGNKLDLYGKVDGLHYFSDNKDVDGDQTYMRLGFKGETQVTDQLTGYGQWEYQIQGNSAENENNSWTRVAFAGLKFQDVGSFDYGRNYGVVYDVTSWTDVLPEFGGDTYGSDNFMQQRGNGFATYRNTDFFGLVDGLNFAVQYQGKNGNPSGEGFTSGVTNNGRDALRQNGDGVGGSITYDYEGFGIGGAISSSKRTDAQNTAAYIGNGDRAETYTGGLKYDANNIYLAAQYTQTYNATRVGSLGWANKAQNFEAVAQYQFDFGLRPSLAYLQSKGKNLGRGYDDEDILKYVDVGATYYFNKNMSTYVDYKINLLDDNQFTRDAGINTDNIVALGLVYQF
stoichiometry N [2]: 3

B4: ^35S-labelled OmpC (natural protein)
chain: MKVKVLSLLVPALLVAGAANAAEVYNKDGNKLDLYGKVDGLHYFSDNKDVDGDQTYMRLGFKGETQVTDQLTGYGQWEYQIQGNSAENENNSWTRVAFAGLKFQDVGSFDYGRNYGVVYDVTSWTDVLPEFGGDTYGSDNFMQQRGNGFATYRNTDFFGLVDGLNFAVQYQGKNGNPSGEGFTSGVTNNGRDALRQNGDGVGGSITYDYEGFGIGGAISSSKRTDAQNTAAYIGNGDRAETYTGGLKYDANNIYLAAQYTQTYNATRVGSLGWANKAQNFEAVAQYQFDFGLRPSLAYLQSKGKNLGRGYDDEDILKYVDVGATYYFNKNMSTYVDYKINLLDDNQFTRDAGINTDNIVALGLVYQF
modifications: ^35S-methionine label
stoichiometry N [1]: 3

B5: ^35S-labelled OmpC(Y286A) (natural protein)
chain: MKVKVLSLLVPALLVAGAANAAEVYNKDGNKLDLYGKVDGLHYFSDNKDVDGDQTYMRLGFKGETQVTDQLTGYGQWEYQIQGNSAENENNSWTRVAFAGLKFQDVGSFDYGRNYGVVYDVTSWTDVLPEFGGDTYGSDNFMQQRGNGFATYRNTDFFGLVDGLNFAVQYQGKNGNPSGEGFTSGVTNNGRDALRQNGDGVGGSITYDYEGFGIGGAISSSKRTDAQNTAAYIGNGDRAETYTGGLKYDANNIYLAAQYTQTYNATRVGSLGWANKAQNFEAVAQAQFDFGLRPSLAYLQSKGKNLGRGYDDEDILKYVDVGATYYFNKNMSTYVDYKINLLDDNQFTRDAGINTDNIVALGLVYQF
modifications: ^35S-methionine label
stoichiometry N [1]: 3
